Measured values: paper PMC12445016 (Nature, 2025)
One block for each molecule: values may come before it.

Key:
[1] = target: GRK5-phosphorylated ACKR3·CXCL12_(LRHQ) (UniProt P25106); experiment: pull-down
[2] = target: T1, biotinylated Arr3* loaded with inositol hexakisphosphate (IP6) (bovine, UniProt P32120, biotin (EZ-link sulfo-NHS-Biotin; sites not stated)); experiment: ELISA
T1 chain: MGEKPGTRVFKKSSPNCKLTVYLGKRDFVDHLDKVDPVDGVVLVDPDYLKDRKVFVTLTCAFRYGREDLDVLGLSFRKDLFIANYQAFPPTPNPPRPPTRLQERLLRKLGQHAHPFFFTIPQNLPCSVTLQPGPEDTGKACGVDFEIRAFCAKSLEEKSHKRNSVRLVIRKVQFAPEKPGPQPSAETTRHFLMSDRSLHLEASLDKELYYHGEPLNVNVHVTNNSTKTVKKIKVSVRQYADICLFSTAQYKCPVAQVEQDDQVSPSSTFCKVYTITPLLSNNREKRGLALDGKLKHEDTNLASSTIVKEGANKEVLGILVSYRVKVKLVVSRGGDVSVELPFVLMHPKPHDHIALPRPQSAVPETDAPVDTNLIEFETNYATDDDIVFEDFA

[3] = target: T2, preactivated arrestin3 (truncated after residue 392) (bovine, UniProt P32120); experiment: ELISA
T2 chain: T1 chain

percent more pulled down than by pACKR3 (GRK2) [1]: 30%
Molecule: preactivated arrestin2 (I386A, V387A, F388A mutations in its C-tail) (from UniProt P17870 1-418) (natural protein)

percent more pulled down than by pACKR3 (GRK2) [1]: 40%
Molecule: preactivated arrestin3 (truncated after residue 392) (from UniProt P32120 1-392) (domain or fragment)

EC50 [2]: ~10 nM
IC50 [3]: ~90 nM
B1: Fab7 (antigen binding fragment that recognizes active arrestin2 and arrestin3) (Fab, V domains shown)
VH: EVQLVESGGGLVQPGGSLRLSCAASGFNVSSSYIHWVRQAPGKGLEWVASISSYYGYTYYADSVKGRFTISADTSKNTAYLQMNSLRAEDTAVYYCARKSMYHRGWGWLSWVYGAMDYWGQGTLVTVSS
VL: DIQMTQSPSSLSASVGDRVTITCRASQSVSSAVAWYQQKPGKAPKLLIYSASSLYSGVPSRFSGSRSGTDFTLTISSLQPEDFATYYCQQSYYYPITFGQGTKVEIK
